Laboratory results taken from the FLAb antibody collection (doi:10.7554/elife.23156).

B1: scFv; the commonest letter at each place (parent)
chain 1: EVKLDETGGGLVQPGRPMKLSCVASGFTFSDYWMNWVRQSPEKGLEWVAQIRNKPYNYETYYSDSVKGRFTISRDDSKSSVYLQMNNLRVEDMGIYYCTGSYYGMDYWGQGTSVTVS
chain 2: DVVMTQTPLSLPVSLGDQASISCRSSQSLVHSNGNTYLRWYLQKPGQSPKVLIYKVSNRFSGVPDRFSGSGSGTDFTLKISRVEAEDLGVYFCSQSTHVPWTFGGGTKLEIK

Assays:
fluorescein = variants of: B1; assay: Kd (Tite-Seq); conditions: with fluorescein; format: scFv 4-4-20, heavy + light
[1] = variants of: B1; assay: yeast surface expression (ratio to wild type); higher = more expressed; conditions: format: scFv 4-4-20, heavy + light

Which Kd (fluorescein) does the source give for chain 1 EVKLDETGGGLVQPGRPMKLSCVASGFTFSDYWMNWVRQSPEKGLEWVAQIRNKPYNYETYYSDSVKGRFTISRDDSKSSVYLQMNNLRVEDMGIYYCTGSYMGMDYAGQGTSVTVS chain 2 DVVMTQTPLSLPVSLGDQASISCRSSQSLVHSNGNTYLRWYLQKPGQSPKVLIYKVSNRFSGVPDRFSGSGSGTDFTLKISRVEAEDLGVYFCSQSTHVPWTFGGGTKLEIK [chain 1 Y103M W108A] here?
Its Kd is 0.00746 µM.

What about the yeast surface expression [1] of the same variant?
Its yeast surface expression is 0.484.

For chain 1 EVKLDETGGGLVQPGRPMKLSCVASGFTFSDYWMNWVRQSPEKGLEWVAQIRNKPYNYETYYSDSVKGRFTISRDDSKSSVYLQMNNLRVEDMGIYYCTGSEYGMSYWGQGTSVTVS chain 2 DVVMTQTPLSLPVSLGDQASISCRSSQSLVHSNGNTYLRWYLQKPGQSPKVLIYKVSNRFSGVPDRFSGSGSGTDFTLKISRVEAEDLGVYFCSQSTHVPWTFGGGTKLEIK [chain 1 Y102E D106S], which Kd (fluorescein) is on record?
Its Kd is ≥ 10 µM.

And the yeast surface expression [1]?
Its yeast surface expression is 1.01.

With chain 1 EVKLDETGGGLVQPGRPMKLSCVASGFTFSDYWMNWVRQSPEKGLEWVAQIRNKPYNYETYYSDSVKGRFTISRDDSKSSVYLQMNNLRVEDMGIYYCTGSYYGMKYWGQGTSVTVS chain 2 DVVMTQTPLSLPVSLGDQASISCRSSQSLVHSNGNTYLRWYLQKPGQSPKVLIYKVSNRFSGVPDRFSGSGSGTDFTLKISRVEAEDLGVYFCSQSTHVPWTFGGGTKLEIK [chain 1 D106K] as the variant, how does the Kd (fluorescein) read?
Its Kd is ≥ 10 µM.

And the yeast surface expression [1]?
Its yeast surface expression is 0.415.

Which results are given for chain 1 EVKLDETGGGLVQPGRPMKLSCVASGFTYSDYWMNWPRQSPEKGLEWVAQIRNKPYNYETYYSDSVKGRFTISRDDSKSSVYLQMNNLRVEDMGIYYCTGSYYGMDYWGQGTSVTVS chain 2 DVVMTQTPLSLPVSLGDQASISCRSSQSLVHSNGNTYLRWYLQKPGQSPKVLIYKVSNRFSGVPDRFSGSGSGTDFTLKISRVEAEDLGVYFCSQSTHVPWTFGGGTKLEIK [chain 1 F29Y V37P]?
Kd (fluorescein): 0.228 µM; yeast surface expression [1]: 2.26

With chain 1 EVKLDETGGGLVQPGRPMKLSCVASGFTFSDYWMNWVRQSPEKGLEWVAQIRNKPYNYETYYSDSVKGRFTISRDDSKSSVYLQMNNLRVEDMGIYYCTGSYYGMMCWGQGTSVTVS chain 2 DVVMTQTPLSLPVSLGDQASISCRSSQSLVHSNGNTYLRWYLQKPGQSPKVLIYKVSNRFSGVPDRFSGSGSGTDFTLKISRVEAEDLGVYFCSQSTHVPWTFGGGTKLEIK [chain 1 D106M Y107C] as the variant, how does the Kd (fluorescein) read?
The Kd was ≥ 10 µM.

And the yeast surface expression [1]?
Its yeast surface expression is 0.228.

For chain 1 EVKLDETGGGLVQPGRPMKLSCVASGFTFSDYWLTWVRQSPEKGLEWVAQIRNKPYNYETYYSDSVKGRFTISRDDSKSSVYLQMNNLRVEDMGIYYCTGSYYGMDYWGQGTSVTVS chain 2 DVVMTQTPLSLPVSLGDQASISCRSSQSLVHSNGNTYLRWYLQKPGQSPKVLIYKVSNRFSGVPDRFSGSGSGTDFTLKISRVEAEDLGVYFCSQSTHVPWTFGGGTKLEIK [chain 1 M34L N35T], which Kd (fluorescein) is on record?
The Kd was ≥ 10 µM.

And the yeast surface expression [1]?
The yeast surface expression was 0.824.

What does the source list for chain 1 EVKLDETGGGLVQPGRPMKLSCVASGFTFSDYWMNWVRQSPEKGLEWVAQIRNKPYNYETYYSDSVKGRFTISRDDSKSSVYLQMNNLRVEDMGIYYCTGSKMGMDYWGQGTSVTVS chain 2 DVVMTQTPLSLPVSLGDQASISCRSSQSLVHSNGNTYLRWYLQKPGQSPKVLIYKVSNRFSGVPDRFSGSGSGTDFTLKISRVEAEDLGVYFCSQSTHVPWTFGGGTKLEIK [chain 1 Y102K Y103M]?
Kd (fluorescein): 1.14 µM; yeast surface expression [1]: 1.08

What does the source list for chain 1 EVKLDETGGGLVQPGRPMKLSCVASGFTFSDYWMNWVRQSPEKGLEWVAQIRNKPYNYETYYSDSVKGRFTISRDDSKSSVYLQMNNLRVEDMGIYYCTGTYQGMDYWGQGTSVTVS chain 2 DVVMTQTPLSLPVSLGDQASISCRSSQSLVHSNGNTYLRWYLQKPGQSPKVLIYKVSNRFSGVPDRFSGSGSGTDFTLKISRVEAEDLGVYFCSQSTHVPWTFGGGTKLEIK [chain 1 S101T Y103Q]?
Kd (fluorescein): ≥ 10 µM; yeast surface expression [1]: 1.11

With chain 1 EVKLDETGGGLVQPGRPMKLSCVASGFTFSDYWMNWVRQSPEKGLEWVAQIRNKPYNYETYYSDSVKGRFTISRDDSKSSVYLQMNNLRVEDMGIYYCTGSYYGMAYWHQGTSVTVS chain 2 DVVMTQTPLSLPVSLGDQASISCRSSQSLVHSNGNTYLRWYLQKPGQSPKVLIYKVSNRFSGVPDRFSGSGSGTDFTLKISRVEAEDLGVYFCSQSTHVPWTFGGGTKLEIK [chain 1 D106A G109H] as the variant, how does the Kd (fluorescein) read?
The Kd was ≥ 10 µM.

And the yeast surface expression [1]?
Its yeast surface expression is 0.448.

What does the source list for chain 1 EVKLDETGGGLVQPGRPMKLSCVASGFTFSDYFMNLVRQSPEKGLEWVAQIRNKPYNYETYYSDSVKGRFTISRDDSKSSVYLQMNNLRVEDMGIYYCTGSYYGMDYWGQGTSVTVS chain 2 DVVMTQTPLSLPVSLGDQASISCRSSQSLVHSNGNTYLRWYLQKPGQSPKVLIYKVSNRFSGVPDRFSGSGSGTDFTLKISRVEAEDLGVYFCSQSTHVPWTFGGGTKLEIK [chain 1 W33F W36L]?
Kd (fluorescein): ≥ 10 µM; yeast surface expression [1]: 0.594

What does the source list for chain 1 EVKLDETGGGLVQPGRPMKLSCVASGFAFSDYWMCWVRQSPEKGLEWVAQIRNKPYNYETYYSDSVKGRFTISRDDSKSSVYLQMNNLRVEDMGIYYCTGSYYGMDYWGQGTSVTVS chain 2 DVVMTQTPLSLPVSLGDQASISCRSSQSLVHSNGNTYLRWYLQKPGQSPKVLIYKVSNRFSGVPDRFSGSGSGTDFTLKISRVEAEDLGVYFCSQSTHVPWTFGGGTKLEIK [chain 1 T28A N35C]?
Kd (fluorescein): ≥ 10 µM; yeast surface expression [1]: 0.665

Which Kd (fluorescein) does the source give for chain 1 EVKLDETGGGLVQPGRPMKLSCVASGFTFSDYWMNWQRQSPEKGLEWVAQIRNKPYNYETYYSDSVKGRFTISRDDSKSSVYLQMNNLRVEDMGIYYCTGSYYGMDYWGQGTSVTVS chain 2 DVVMTQTPLSLPVSLGDQASISCRSSQSLVHSNGNTYLRWYLQKPGQSPKVLIYKVSNRFSGVPDRFSGSGSGTDFTLKISRVEAEDLGVYFCSQSTHVPWTFGGGTKLEIK [chain 1 V37Q] here?
Its Kd is 0.00194 µM.

And the yeast surface expression [1]?
Its yeast surface expression is 0.731.
